Test results reported in article PMC9023288, “The Burkholderia cenocepacia iron starvation σ factor, OrbS, possesses an on-board iron sensor” (Nucleic Acids Research, 2022).
Values joined by “and” are separate entries in the source; they are usually repeats but may differ in a detail not shown here. Equal entries are not always repeated.

B1: His-tagged Burkholderia cenocepacia OrbS (iron starvation ECF σ factor) (natural protein, UniProt B4E986 1-222, looked up)
chain: MAMAEVLDRPAAAAANPFLGSYPDLPPRAAPRARRASEPRAQGALLDVLISHRAMLVNVARGFVGCASRAEDVVHDVFVKLVEFPNQDAVRQPVAYVTRMVRNASIDACRRQNLENVYHTEEDDGFDVPSPEPTPEAALMTRDTLRRVWAALDDLPARSRAAFEMVRLREETLQTAARALNVSQTLVHFMVRDAERHCAECLDACHRGVACPVFLGGRARRR
notes: also called σ^OrbS; BCAL1688

Key:
[1] = target: His-tagged OrbS-CtetraA (OrbS with all four C-terminal cysteine residues replaced by alanine); assay: BLI
[2] = target: T1, E. coli core RNA polymerase (core RNAP, α2ββ'ω) (E. coli, UniProt P0A7Z4 1-329; P0A8V2 1-1342; P0A8T7 1-1407; P0A800 1-91); assay: BLI; details: both partners purified
T1 construct: RNA polymerase subunit alpha, E. coli; RNA polymerase subunit beta, E. coli; RNA polymerase subunit beta', E. coli; RNA polymerase subunit omega, E. coli; Commercial core enzyme (NEB); also called E. coli RNAP core enzyme; core E. coli RNAP; source: bought: NEB; copies: 2 + + +

Row | Molecule | Kd [1] | kon [1] | Kd [2] [nM] | koff [2] [s⁻¹] | kon [2] [M⁻¹ s⁻¹]
1 | E. coli core RNA polymerase (core RNAP, α2ββ'ω) (from UniProt P0A7Z4 1-329; P0A8V2 1-1342; P0A8T7 1-1407; P0A800 1-91) (complex) | 20 nM and 160 nM | 15000 M⁻¹ s⁻¹ and 9100 M⁻¹ s⁻¹ |  |  | 
2 | B1 |  |  | 83 | 0.00045 | 5400
